Results taken from the nanobody polyreactivity screen of Harvey et al. (2022).

Test: yeast display, Sf9 membrane polyspecificity reagent, FACS + sequencing; frameworks hold sequencing errors
In short: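 Using colony PCR, genes from sorted yeast display clones were amplified, then sequenced on MiSeq at 2 × 250 and filtered by CDR length. The clones had been stained with 10% biotinylated, detergent-solubilized Sf9 membrane reagent for 1 hour at 4 °C and sorted by FACS into low and high (top ~1%) gates on anti-HA and streptavidin fluorescence. Polyreactivity labels come from the gate of origin.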

Sequence	polyreactivity (PSR sort gate)
QVQLVESGGGLVQAGGSLRLSCAASGRTFGWYAMGWYRQAPGKERELVAAINNSGDITYYADSVKGRFTISRDNAKNTVYVQMNSLKPEDTAVYYCAATAGYYGYPSEYDYWGQGTQVTVSS	low polyreactivity
QVQLVESGGGLVQAGGNLRLSCASSGIIFFKYAMGWYRPEPGKERELVAAITSGGSTYYADSVKWRFTISRDNAKKTVYLQMNSLKPEDTAVYYCAAAGGRFIRYCYWGQGTQVTVSS	high polyreactivity
QVQLVESGGGLVQAGGSLRLSCAASGSTFYTNAMGWYRQAPGKERELVAAISGSGGSTYYADSVKGRFTISRDNAKNTVYLQMNSLKPEDTAVYYCAARSRYYDTRFDYWGQGTQVTVSS	low polyreactivity
QVQLVESGGGLVQAGGSLRLSCAASGSIFARYAMGWYRQAPGKERELVATITRGGSTNYADSVKGRFTISRDNAKNTVYLQMNSLKPEDTAVYYCARTSYGRLDYWGQGTQVTVSS	low polyreactivity
QVQLVESGGGLVQAGGSLRLSCAASGSTFSWYAMGWYRQAPGKERELVATITGSGGSTYYADSVKGRFTISRDNAKNTVYLQMNSLKPEDTAVYYCALDRGYTRWIASHSYQYDYWGQGTQETVSS	low polyreactivity
QVQLVDSGGGLVQAGGSLRLSCAPSGSTFGYNAMGWYRQAPGKERELVAAITWSGGSTYYADSVKGRFTISRDNAKNTVYLQMNSLKPEDTAVYYCAADDWYNSKWHYYSWGQGTQLTVSS	low polyreactivity
QVQLVESGGGLVHAGGSLSLSCAASGSIFPGYAMGWYRQAPGKERELVAGITWSDARTYYADSVKGRFTISRDNAKNTVYLQMNSLKPEDTAVYYCAADYYYYERDYWGKGTQVTVSS	low polyreactivity
QVQLVESGGGLVQAGGSLRLSCAASGSTFGFYAMGGYRQAPGKERELVAVISSGGGTNYADSVKGRFTISRDNAKNTVYLQMNSLKPEDTAVYYCAASRFALSGGYDYWGQGTQVTVSS	low polyreactivity
QVQLVDSGGGLVQAGGSLRLSCAASGSTFRGYAMGWYRQSPGKERELVAAITGSAGSTYYADSVKGRFTISRDNAKNTVYLQMNSLKPEDTAVYYCAAATSYRRYYYIYNYWGQGTQVTVSS	high polyreactivity
QVQLVESGGGLVQAGGSLRLSCAASGLTFDRYGMGWYRQAPGKERELVAAIDGSGTSTYYADSVKGRFTISRDNAKNTVYLQMNSLKPEDTAVYYCNAYWTYEFPSYDYWGQGTQVTVSS	low polyreactivity
QVQLVESGGGLVQAGGSLRLSCAASGSIFFPYTMGWYRQAPGKERELVAAISERGGDTYYADSVKGRFTISRDNAKNTVYLQMNSLKPEDTAVYDCAAATSPISTSDYWGQGTQVTVSS	low polyreactivity
QDQHVESGGGLVQAGGSLRLSCAASGSTLLYYVMGWYRQAPGKERELVAAITGTGGRTYYADSVKGRFTISRDNAKNTVYLQMNSLKPEDTAVYYCAREWRTRIYYYWGQGTQVTVSS	low polyreactivity
QVHLVESGGGLVQAGGRLRLSCAASGYIFSVYAMGLYRQAPGKERELVAAISSGGSTYYADSLKGRLTISRDNAKYTVYLQMNSLKPEDTAVYYCAAESVYVYWYYVDYDYWGQGTQVTVSS	high polyreactivity
QVQLVESGGGLVQAGGSLRLSCAASGRTFVTYAMGWYRQAPGKEREFVASISSDSGNTYYADSVKGRFTISRDNAKNTLYFQMNSLKPEDTAVYYCARRKVRYWSYPAAHYYWGQGTQVTVSS	low polyreactivity
QVQLVESGGGLVQAGGSLRLSCAASGRTFVSYAMGWYRQAPGKERELVAAISGSGGSTYYADSVKGRFTISPDNAKKTGYLQMNSLKPEDTAVYYCHKGRPRKVNSEGFGYWGQGTQVTVSS	high polyreactivity
QVQLQESGGGLVQAGGDLRLSCAASGNIFRDYIMGWYRQAPGKEREFVAGIDRGANTNYADSVKGRFTISRDNAINTVYLQMKSLKPVDTAVYYCAVHTAFVPDFIYWGQGTQVTVSS	low polyreactivity
QVQLVESGGGLVQAGGSLRLSCAASGYTFLGYAMGWYRQAPGKERELVAAIRRSGGRPYYADSVKGRFTISRDNAKNTVYLQINRLKPEDTAVYYCAQGYVGEYDYWGQGTQVTVTS	high polyreactivity
QVQLVESGGGLVQAGGSLRLSCAASGRTFGIYAMGWYRQAPGKERELVAAISCGGGSTYYADSVKGRFTISRDNAKNTVYLQMNSLKPEYTAVYYCAAQAQWDGQMDYWGQGTQVTVSS	low polyreactivity
QVQLVESGGGIVQAGGSLPLSCAASGSTYNSYAMGWYRQAPGKDRELVAGISYIGGRTYYADSVKGRFTISRDNAKNTVYLQMNSLKPEDTAVYYCAAVYWYGRRKYYSWGQGTQVTVSS	high polyreactivity
QVQLVESGGGLVQAGGSLRLSCAASGITFYGYAMGWYRQAPGKERELVAAISKRGGSTYYADSVKGRFTISRDNAKNTVYLQMNSLKPEDTAVYYCNARPGKSQGWRYDYWGQGTQVTVSS	high polyreactivity
QVQLVESGGGLVQAGGSLRLSSSASGSIFDGYAMGWYRQAPGKEREFVAAIRWGDGIKYYADSVKGRFTISRDNAKNTVYLQMNSLTPEDTAVYYCAAVQHGHEPRVQDSYDYWGQGTQVTVSS	low polyreactivity

Sequence	polyreactivity (PSR sort gate)
QVQLEESGGGLVQAGGSLRLSCAASGYNFVYYAMGWYRQAPGKERELDAAITGRGGSTYYADSVKGRFTISRDNAKNTVYLQMNSLKPEDTAVYYCAKKRIGPVKQFGRDYNYWGQGTQVTVSS	high polyreactivity
QVQLVESGGGLVQAGGSLRLSCAASGFIFRVYTMGWYRQAPGKERELVAAISYRGGRTYYADSVKGRFTISRDNAKNTVYLQMNSQKPEDTAVYYCAADRVNREFDYWGQGTQVTVSS	high polyreactivity
QVQLVESGGGLVQAGGSLRLSCAASGNTFHYYTMGWYRQAPGKERELVAAITRSAGRTYYADSVKGRFTISRDNAKTTVYLQMNSLKPEDTAVYYCATERERTMGYWGQGTQVTVSS	high polyreactivity
QVQLVESGGGLVQAGGSLRISCAASGLIFAIYAMGWYRQAPGKERELVAAIRWSGASPYADSVKGRFTISRDNAKKTVYLQMNSLKPEDSAVYYCAADDLLDYDYWGQGTQVTVSA	low polyreactivity
QVQLVESRGGLVQAGGSLRLSCAASGRIFNVYAMGWYRQAPGKERELVAGISGSGGRTYYADSVKGRFTISRDNAKNTVYLQMNSLKPEDTAVYYCNTVRHYSSWGQGTQVTVSS	high polyreactivity
QVQLVESGGGFVQAGGSLRLSCAASGRTFWNYAMGWYRPAPGKERELVAVIRFSDGSTYYADSVKGRFTISRDHAKNTVYLQMNSLKPEDTAVYYCAAKGPRRWGSGFDYWGQGTQVTVSS	low polyreactivity
QVQLVESGGGLVQAGGSLRLSSAASGRIFGVYAMGWYRQAPGKERELVAAITRSGGSTYYADSVKGRFTISRDNAKNTDYLQMKSLKPEDTAVYYCNRDFRGLAYSDRYDYWGQVTQVTVSS	low polyreactivity
QVQLVESGGGLVQAGGSLRLSCAASGFIFFYYAMGWYRQAPGKERELVAAITKNGGRTYYADSVKGRFTISRDNAKNTVYLQMNSLKPEDTAVYYCNKVKGQGGYYGYDYWGQGTQVTVSS	high polyreactivity
QVQLVESGGGLVQAGGSLRLSCAASGSTFEAYAMGWYRQGPGKERELVAAINFTGGRTYYADSVKGRFTISRDNAKNTVYLQMNSLKPEDTAVYYCAARKWGVPYIDNDYWGQGTQVTVSS	low polyreactivity
QVQLVESGGGEVQAGGSLRLSCAASGNIFVKYNMGWYRQAPGKERKLVAAIRWSGGTTNYADSVKGRFTISRDNAKSTVYLQMNSLKPEDTAVYYCNTGYWFFGYNEYDYWGQGTQVTVSS	low polyreactivity
QVQLVESGGGLVQAGGTLRLSCAASGSTFTGNAMGWYRQAPGKERELVAAITIGGSRTYYADSVKGRFTISRDNAKNTVYLQMNSLKPEDTAVYYCAATSRGTDYWGQGTQVTVSS	high polyreactivity
QVQLVESGGGLVQAGGSLRLSCAASGFILFPNAMGWYRQAPGKERELVAAITSGGRTNYADSVKGRFTISRDNAKNTVYLQMTSLKPEDTAVYYCAYVGYWWGYDYWGQGTQVTVSS	low polyreactivity
QVQLVESGGGLVQAGGSLRLSCAASGSISIFYMGWYRQAPGKERELVAAISWSGGRTYYADSVKGRFTISRDNAKNTVYLQMNSLKREDTAVYYCAASRSFPGYGLYYYWGQGTQVTVSS	low polyreactivity
QVQLVESGAALVQAGGSLRLSCAASGFIIAVYAMGWYRQAPGKERELVAAITRSGGSTYYADSVKGRFTISRDNAKNTFYLQMNSLKPEDSAVYYCAARNTQPASYGYGYWGLGTQVTVSS	high polyreactivity
QVQLVESGGGLVQEGGILRLICAASGIIFPIYAMGWYRQAPGKERELVAAISQSGASTYYADSVKGRFTISRDNAKNTVYLALNSLKPEDTAVYYCAALNGDGPWQLSSEEFVYWGQGTQVTVSS	low polyreactivity
QVQLVESGGGLVQAGGSLRLSCAASGSILGVNVMGWYRQAPGKERELVAAISLSSSRTNYADSVKGRFTISRDNAKNTVYLQMNSLKPVDTAVYDCASAVRPGYARPYTSWGQGTQVTVSS	high polyreactivity
QVQLVESGGGLVQAGGSLRLSCAASGSTFSYNAMGWYRQAPGKERELVAAISKSGGSTSYADSVKGRFTISRDNAKNTVYLQMNSQKPEDTAVYYCNARYSRKYGYWGQGTQVTVSS	high polyreactivity
QVQLVESGGGLVQAGGSLRLSCAASGRIFAYYLMGCYRQAPGKEREFVAAISWSGGRTYYADSVKGRFTISRDNAKNTVYLQMNSLKPEDTAVYYCNAGRPLWLAYGMDYWGQGTQVTVSS	low polyreactivity
QVQLVESGGGLVQAGGSLRLSCAASGSTLQINGMGWYRQAPGKERELVAAISIGSDTNYADSVKGRFTISRDNAKNTEMNSLKPEDTAVYYCAAQRRYHQDTTIGPGNYYYWGQGTQVTVSS	low polyreactivity
QVQLVESGGGLVQAGGSLRLSCAASGRIFRWYAMGWYRQAPGKERELVAGINYGGGRTYYADSVKGRFTISRDNAKNTVYLQMNSLNPEDTAVYYCAAGISGHYYWGQGTQVTVSS	high polyreactivity
